In patent US20070293656A1, “COLLAGEN BINDING PEPTIDES” (Epix Pharmaceuticals, Inc., priority 2005, published 2007):
Bridge positions count the residues as written; N and C are the ends. Ends that are not written are not given here.

B1: SEQ ID NO: 76 (peptide)
peptide: FGACDIFPTFHTCPGV
modifications: disulfide 4-13 (inferred)
B2: SEQ ID NO: 73 (peptide)
peptide: SWHCALVENSWQCSEA
modifications: disulfide 4-13 (inferred)
B3: SEQ ID NO: 61 (peptide)
peptide: KWSCYMVDHQWYCREF
modifications: disulfide 4-13 (inferred)
B4: SEQ ID NO: 58 (peptide)
peptide: GWVCMMRETDWNCSI
modifications: disulfide 4-13 (inferred)
B5: SEQ ID NO: 81 (peptide)
peptide: QWFCEMDEYGKWNCGMM
modifications: disulfide 4-14 (inferred)
B6: SEQ ID NO: 56 (peptide)
peptide: SWNCHMIRNEWRCTGH
modifications: disulfide 4-13 (inferred)
B7: SEQ ID NO: 83 (peptide)
peptide: GWACNTTSKGDWECTNL
modifications: disulfide 4-14 (inferred)
B8: SEQ ID NO: 70 (peptide)
peptide: FWRCALLDGHWQCTDH
modifications: disulfide 4-13 (inferred)
B9: SEQ ID NO: 59 (peptide)
peptide: HWQCRLTDYGWNCDER
modifications: disulfide 4-13 (inferred)
B10: SEQ ID NO: 57 (peptide)
peptide: RWTCDLQRGDWQCSTI
modifications: disulfide 4-13 (inferred)
B11: SEQ ID NO: 60 (peptide)
peptide: EWHCVLNDFRWTCGGD
modifications: disulfide 4-13 (inferred)
B12: SEQ ID NO: 63 (peptide)
peptide: NWYCSQALDNWSCKLR
modifications: disulfide 4-13 (inferred)
B13: SEQ ID NO: 69 (peptide)
peptide: HWQCGEKMSFWSCELV
modifications: disulfide 4-13 (inferred)
B14: SEQ ID NO: 62 (peptide)
peptide: HWSCYLGDNGWNCHDR
modifications: disulfide 4-13 (inferred)
B15: SEQ ID NO: 72 (peptide)
peptide: EWHCVFIQGDWLCNSG
modifications: disulfide 4-13 (inferred)
B16: SEQ ID NO: 64 (peptide)
peptide: TWICSHNDKGWTCGDQ
modifications: disulfide 4-13 (inferred)
B17: SEQ ID NO: 82 (peptide)
peptide: LWTCSMDRNYDWVCGEK
modifications: disulfide 4-14 (inferred)
B18: SEQ ID NO: 54 (peptide)
peptide: MWNCTMTKSGWRCFEK
modifications: disulfide 4-13 (inferred)
B19: SEQ ID NO: 85 (peptide)
peptide: GWTCSQPGANVWNCTMQ
modifications: disulfide 4-14 (inferred)
B20: SEQ ID NO: 53 (peptide)
peptide: GWFCKLVDGNWECSTK
modifications: disulfide 4-13 (inferred)
B21: SEQ ID NO: 55 (peptide)
peptide: SWNCHWRNQGWLCSGG
modifications: disulfide 4-13 (inferred)
B22: SEQ ID NO: 71 (peptide)
peptide: SWHCALMGSRWVCGQN
modifications: disulfide 4-13 (inferred)
B23: SEQ ID NO: 84 (peptide)
peptide: HWSCDLAMDNEWFCSTK
modifications: disulfide 4-14 (inferred)

Molecular target: T1, human collagen type I (acid soluble, extracted from placenta, Sigma C7774) (human, UniProt P02452 162-1218; P08123 80-1119)
T1 construct: gelled and dried as a fibril film in the assay; also called dried human collagen; h-Collagen
Assay: dried collagen assay
Procedure: An additional 90 μL is reserved in a HPLC glass vial as a measure of the total concentration.

T1 sequence (P02452 162-1218 limits assumed, chain 1 of 2): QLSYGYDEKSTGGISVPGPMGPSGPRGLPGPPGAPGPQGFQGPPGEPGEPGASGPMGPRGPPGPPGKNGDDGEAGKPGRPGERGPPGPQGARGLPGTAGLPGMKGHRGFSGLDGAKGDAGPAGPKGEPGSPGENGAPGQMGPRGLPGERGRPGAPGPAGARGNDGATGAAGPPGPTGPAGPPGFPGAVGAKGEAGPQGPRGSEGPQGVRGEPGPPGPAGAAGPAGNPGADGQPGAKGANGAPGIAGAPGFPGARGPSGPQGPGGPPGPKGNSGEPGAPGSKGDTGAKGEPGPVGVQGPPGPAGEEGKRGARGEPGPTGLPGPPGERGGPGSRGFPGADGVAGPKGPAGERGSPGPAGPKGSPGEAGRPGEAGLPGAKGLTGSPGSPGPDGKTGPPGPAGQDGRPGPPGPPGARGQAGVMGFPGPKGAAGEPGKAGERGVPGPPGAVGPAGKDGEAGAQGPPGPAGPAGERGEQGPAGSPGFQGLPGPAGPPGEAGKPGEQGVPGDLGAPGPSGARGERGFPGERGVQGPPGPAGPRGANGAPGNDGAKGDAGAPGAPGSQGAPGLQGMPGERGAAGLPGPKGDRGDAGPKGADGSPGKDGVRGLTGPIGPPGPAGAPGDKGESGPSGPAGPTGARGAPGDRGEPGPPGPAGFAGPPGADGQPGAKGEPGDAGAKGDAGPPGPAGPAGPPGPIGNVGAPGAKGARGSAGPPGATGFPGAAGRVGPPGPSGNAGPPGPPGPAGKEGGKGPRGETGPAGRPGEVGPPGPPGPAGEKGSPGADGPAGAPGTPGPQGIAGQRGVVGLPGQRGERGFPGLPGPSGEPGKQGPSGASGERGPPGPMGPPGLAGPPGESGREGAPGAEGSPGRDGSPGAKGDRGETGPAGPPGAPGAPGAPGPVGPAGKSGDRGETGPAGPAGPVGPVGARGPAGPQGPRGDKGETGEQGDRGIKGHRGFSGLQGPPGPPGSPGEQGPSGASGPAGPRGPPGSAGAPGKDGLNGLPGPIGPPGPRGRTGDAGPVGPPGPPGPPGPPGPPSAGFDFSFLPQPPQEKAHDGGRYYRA
T1 sequence (P08123 80-1119 limits assumed, chain 2 of 2): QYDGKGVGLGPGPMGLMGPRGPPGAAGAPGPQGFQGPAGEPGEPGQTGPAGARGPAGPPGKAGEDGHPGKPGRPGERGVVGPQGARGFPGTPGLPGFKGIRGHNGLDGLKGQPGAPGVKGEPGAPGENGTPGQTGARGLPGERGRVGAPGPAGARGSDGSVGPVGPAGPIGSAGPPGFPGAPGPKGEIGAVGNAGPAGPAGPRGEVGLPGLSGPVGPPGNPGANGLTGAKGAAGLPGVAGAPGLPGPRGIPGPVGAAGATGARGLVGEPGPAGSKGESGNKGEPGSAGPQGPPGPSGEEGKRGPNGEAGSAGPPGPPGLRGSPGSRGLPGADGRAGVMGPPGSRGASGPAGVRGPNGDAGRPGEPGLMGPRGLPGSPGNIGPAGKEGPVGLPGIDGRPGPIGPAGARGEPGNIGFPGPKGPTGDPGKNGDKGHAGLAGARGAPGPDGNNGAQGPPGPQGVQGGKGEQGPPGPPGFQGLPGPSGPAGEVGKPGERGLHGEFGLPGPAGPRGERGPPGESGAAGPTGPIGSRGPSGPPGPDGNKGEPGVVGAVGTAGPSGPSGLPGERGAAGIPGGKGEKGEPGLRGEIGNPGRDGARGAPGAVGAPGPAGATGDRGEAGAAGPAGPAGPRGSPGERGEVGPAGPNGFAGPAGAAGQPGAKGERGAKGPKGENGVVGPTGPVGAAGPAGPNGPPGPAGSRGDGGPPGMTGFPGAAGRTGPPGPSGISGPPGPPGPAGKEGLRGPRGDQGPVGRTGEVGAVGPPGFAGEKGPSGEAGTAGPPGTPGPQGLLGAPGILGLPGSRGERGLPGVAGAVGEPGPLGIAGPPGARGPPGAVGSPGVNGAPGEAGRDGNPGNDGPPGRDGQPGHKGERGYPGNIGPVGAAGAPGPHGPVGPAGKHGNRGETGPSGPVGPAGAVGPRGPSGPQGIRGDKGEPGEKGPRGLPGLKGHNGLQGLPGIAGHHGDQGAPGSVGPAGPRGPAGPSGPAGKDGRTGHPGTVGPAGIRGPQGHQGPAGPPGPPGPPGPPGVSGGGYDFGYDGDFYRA

Row | Binder | % bound [%]
1 | B1 | 1
2 | B2 | 1
3 | B3 | 9
4 | B4 | 10
5 | B5 | 3
6 | B6 | 11
7 | B7 | 3
8 | B8 | 3
9 | B9 | 10
10 | B10 | 11
11 | B11 | 10
12 | B12 | 8
13 | B13 | 3
14 | B14 | 9
15 | B15 | 1
16 | B16 | 8
17 | B17 | 3
18 | B18 | 12
19 | B19 | 3
20 | B20 | 12
21 | B21 | 12
22 | B22 | 3
23 | B23 | 3
